Test results from patent US11028172.

What was measured:
[1] = target: human TIGIT expressed on cells (human) (UniProt Q495A1); test: flow cytometry on human TIGIT overexpressing cells, Alexa Fluor 647 anti-human IgG; fitted top of a flat control curve, unit from the y axis
[2] = target: biotin-labeled human TIGIT protein (human) (UniProt Q495A1); test: ELISA blocking assay: CD155-hFc coated, biotin-labeled human TIGIT, antibody titrated
[3] = target: human TIGIT-His protein (human) (UniProt Q495A1); test: ELISA, plate coated with human TIGIT-His, anti-human IgG-HRP, OD 450nm; unit taken from the axis Log[Conc.]/ng/ml
Chain of human TIGIT-His protein (human) (Q495A1 22-141 limits assumed): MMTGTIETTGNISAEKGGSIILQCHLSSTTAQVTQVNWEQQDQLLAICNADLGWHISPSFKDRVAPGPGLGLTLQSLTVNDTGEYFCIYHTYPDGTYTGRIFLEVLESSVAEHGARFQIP

Chain of biotin-labeled human TIGIT protein (human) (Q495A1 22-141 limits assumed): as above
Chain of human TIGIT expressed on cells (human) (Q495A1 22-244): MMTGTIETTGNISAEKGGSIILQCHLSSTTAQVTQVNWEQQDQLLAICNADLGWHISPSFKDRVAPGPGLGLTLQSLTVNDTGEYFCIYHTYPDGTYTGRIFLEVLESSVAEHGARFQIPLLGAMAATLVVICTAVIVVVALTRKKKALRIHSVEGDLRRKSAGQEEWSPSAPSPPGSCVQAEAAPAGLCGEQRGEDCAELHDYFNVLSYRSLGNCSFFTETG

Row | Top [1] | IC50 [2] | EC50 [3] | Substance
1 | 110 MFI | – | – | total human IgG (antibody)
2 | – | 0.531 µg/mL | 0.00659 µg/mL | Tiragolumab (RG6058, Roche) (antibody)
